Patent US20260184815A1 (published 2026)

biological target: T1, human plasma kallikrein (human, UniProt P03952 20-390; P03952 391-638); assay: ELISA, biotinylated pKal signal over streptavidin background
T1 construct: also called pKal; Human pKal
Description: Abbreviations used: “T/B” is the ELISA signal obtained using of the “target” (biotinylated plasma kallikrein) divided by the ELISA signal of the “background” (streptavidin); both of which were coated on microtiter plates, “nd” is not determined. The symbol “q” refers to the amber suppressible stop codon (TAG), which is translated as glutamine (Q) in strains of E. coli such as the TG1 cells that were used to express the Fab fragments.

T1 sequence (P03952 20-390, chain 1 of 2): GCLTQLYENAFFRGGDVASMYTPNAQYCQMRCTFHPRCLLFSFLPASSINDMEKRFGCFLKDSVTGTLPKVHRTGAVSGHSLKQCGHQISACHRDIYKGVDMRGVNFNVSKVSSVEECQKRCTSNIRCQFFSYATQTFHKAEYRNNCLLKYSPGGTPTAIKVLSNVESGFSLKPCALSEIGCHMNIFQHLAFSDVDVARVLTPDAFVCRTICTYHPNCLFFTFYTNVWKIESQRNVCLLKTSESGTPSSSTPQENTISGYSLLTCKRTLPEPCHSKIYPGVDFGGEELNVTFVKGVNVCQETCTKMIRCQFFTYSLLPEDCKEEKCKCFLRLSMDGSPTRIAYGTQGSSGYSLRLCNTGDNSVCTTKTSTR
T1 sequence (P03952 391-638, chain 2 of 2): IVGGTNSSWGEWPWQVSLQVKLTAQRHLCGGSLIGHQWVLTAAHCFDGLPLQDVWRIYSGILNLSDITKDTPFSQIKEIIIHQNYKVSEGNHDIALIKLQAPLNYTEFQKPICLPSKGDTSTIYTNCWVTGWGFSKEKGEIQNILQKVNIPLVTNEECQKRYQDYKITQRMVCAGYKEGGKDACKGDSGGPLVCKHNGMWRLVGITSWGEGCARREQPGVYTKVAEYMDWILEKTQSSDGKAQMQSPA

| Binder | ELISA (T/B) |
| --- | --- |
| M9-F10 (Fab, V domains shown, HC as printed runs into CH1) VH: EVQLLESGGGLVQPGGSLRLSCAASGFTFSDYDMEWVRQAPGKGLEWVSSISPSGGSTIYADSVKGRFTISRDNSKNTLYLQMNSLRAEDTAVYYCARQGLLTAFDIWGQGTMVTVSS VL: DIQMTQSPSSLSASVGDRVTITCRASQSINTYLNWYQQKPGKAPKVLIHAASTLESGVPSRFSGSGSGTDFTLTISSLQPEDFATYYCQQSYSTPYTFGQGTKLEVR | 8.4 |
| M10-D11 (Fab, V domains shown, HC as printed runs into CH1) VH: EVQLLESGGGLVQPGGSLRLSCAASGFTFSAYPMNWVRQAPGKGLEWVSRISSSGGNTSYADSVKGRFTISRDNSKNTLYLQMNSLRAEDTAVYYCALGYLGYWGQGTLVTVSS VL: not shown | 6.4 |
| M9-H03 (Fab, V domains shown, HC as printed runs into CH1) VH: EVQLLESGGGLVQPGGSLRLSCAASGFTFSWYSMGWVRQAPGKGLEWVSYIVPSGGYTMYADSVKGRFTISRDNSKNTLYLQMNSLRAEDTAVYYCARDPGVSYYYYGMDVWGQGTTVTVSS VL: QYELTQAPSVSVAPGQTASITCSGDKLGNRYTSWYQQKPGQSPVLVIFQDNKRPSGIPERFSGSNSGNTATLTISGTQAMDEADYYCQALDSNTYVFGTGTKVTVL | 4.4 |
| M10-F09 (Fab, V domains shown, HC as printed runs into CH1) VH: EVQLLESGGGLVQPGGSLRLSCAASGFTFSNYDMMWVRQAPGKGLEWVSYISPSGGFTRYADSVKGRFTISRDNSKNTLYLQMNSLRAEDTATYYCAKDIYYYNWGPSHYFDSWGQGTLVTVSS VL: DIQMTQSPSSLSASVGDRVTITCRASQTIDDDLIWYQQKPGRAPKLLIYAASSLQSGVPSRFSGSGSGTDFTLTITSLQPEDFATYYCQQSYNIPRTFGQGTKLESK | 4.8 |
| M11-E01 (Fab, V domains shown, HC as printed runs into CH1) VH: EVQLLESGGGLVQPGGSLRLSCAASGFTFSTYEMYWVRQAPGKGLEWVSGIGSSGGMTMYADSVKGRFTISRDNSKNTLYLQMNSLRAEDTAMYYCAREQPGIAALQFWGQGTLVTVSS VL: not shown | 11.7 |
| M11-E05 (Fab, V domains shown, HC as printed runs into CH1) VH: EVQLLESGGGLVQPGGSLRLSCAASGFTFSWYTMGWVRQAPGKGLEWVSWIYFGGLTTYADSVKGRFTISRDNSKNTLYLQMNSLRAEDTAVYYCARLGGPLDAFDIWGQGTMVTVSS VL: DIQMTQSPSSLSASVGDTVTITCRTSQTINNYLNWYQQRPGEAPKVLIYATHTLESGVPSRFSGSGSGTDFTLTIGSLQPEDFATYYCQQSFAFPYTFGQGTKVEIT | 41.4 |
| M9-G08 (Fab, V domains shown, HC as printed runs into CH1) VH: EVQLLESGGGLVQPGGSLRLSCAASGFTFSYYTMLWVRQAPGKGLEWVSSIYPSGGFTMYADSVKGRFTISRDNSKNTLYLQMNSLRAEDTAVYYCARVDTAMAMIDYWGQGTLVTVSS VL: not shown | 4.8 |
| M9-H04 (Fab, V domains shown, HC as printed runs into CH1) VH: EVQLLESGGGLVQPGGSLRLSCAASGFTFSAYTMWWVRQAPGKGLEWVSSIWPSGGSTFYADSVKGRFTISRDNSKNTLYLQMNSLRAEDTAVYYCARTYDSSAGEVDYWGQGTLVTVSS VL: not shown | 16.1 |
| M10-B09 (Fab, V domains shown, HC as printed runs into CH1; HC amber q (LqMNS) written as Q) VH: EVQLLESGGGLVQPGGSLRLSCAASGFTFSWYEMSWVRQAPGKGLEWVSRIWPSGGVTMYADSVKGRFTISRDNSKNTLYLQMNSLRAEDTAVYYCTRTSITTVGMDVWGQGTTVTVSS VL: DIQMTQSPSSLSASVGDGVTITCRASQSISTYLNWYQQRPGKAPKLLIYGASSLQSGVPSRFSGSGSGTDFTLTISSLQREDFATYYCQQSFSTPWTFGQGTRVEIK | 14.1 |
| M10-A12 (Fab, V domains shown, HC as printed runs into CH1) VH: EVQLLESGGGLVQPGGSLRLSCAASGFTFSLYLMHWVRQAPGKGLEWVSSIYSSGGFTTYADSVKGRFTISRDNSKNTLYLQMNSLRAEDTAVYYCARDTDYGMDVWGQGTTVTVSS VL: DIQMTQSPLSLSAFVGDRVTITCRASRDISVYLNWYQLKSGKAPKLLIYGASSLQSGVPSRFSGSGSGTDFTLTITSLQPEDFATYYCQQSYSIPFTFGGGTKVETK | 20.8 |
| M10-E06 (Fab, V domains shown, HC as printed runs into CH1) VH: EVQLLESGGGLVQPGGSLRLSCAASGFTFSLYRMFWVRQAPGKGLEWVSSIWSSGGPTMYADSVKGRFTISRDNSKNTLYLQMNSLRAEDTAVYYCAREYPSTYYFDYWGQGTLVTVSS VL: DIQMTQSPSSLSASVGDRVTITCRASQSISTYLNWYQQKPGKAPKLLIYGASSLQSGVPSRFSGSGSGTDFTLTISSLQPEDFTIYYCQQSYSDPYTFGQGTKLDIK | 32.8 |

More lines, now with the values ahead:

| ELISA (T/B) | Binder |
| --- | --- |
| 18.8 | M9-E04 (Fab, V domains shown, HC as printed runs into CH1) VH: EVQLLESGGGLVQPGGSLRLSCAASGFTFSEYDMMWVRQAPGKGLEWVSSIGSSGGMTYYADSVKGRFTISRDNSKNTLYLQMNSLRAEDTAVYYCARDQVAAAAIDYWGQGTLVTVSS VL: DIQMIQSPSSLSASVGDRVTITCRASQSISGYLNWYQQRSGKAPKLLIFAASNLQTGVPSRFSGSGSGTDFTLTINNLQPEDFATYYCQQSHTPPKTFGPGTKVDIK |
| 5.3 | M10-C11 (Fab, V domains shown, HC as printed runs into CH1) VH: EVQLLESGGGLVQPGGSLRLSCAASGFTFSMYPMMWVRQAPGKGLEWVSYISPSGGMTDYADSVKGRFTISRDNSKNTLYLQMNSLRAEDMAVYYCARVAGSSDAFDIWGQGTMVTVSS VL: DIQMTQSPSSLSASVGDRVTITCRASQSISIYLNWYQQKPEKAPKLLIFAASTLQSGVPSRFSGSGSGTDFTLTISNLQPEDFATYYCQQSHSIPPTFGLGTKVEVK |
| 7.8 | M9-C10 (Fab, V domains shown, HC as printed runs into CH1) VH: EVQLLESGGGLVQPGGSLRLSCAASGFTFSLYPMQWVRQAPGKGLEWVSSIGSSGGMTFYADSVKGRFTISRDNSKNTLYLQMNSLRAEDTAVYYCTREVGAAGFAFDIWGQGTMVTVSS VL: DIQMTQSPSSLSASVGDRVTITCRASQGISSYLNWYQQKPGNAPNLLIYGASSLQSGVPSRFSGSGSGTDFTLTISSLQPEDFATYYCQESYSTLFTFGPGTTVEIK |
| 35.9 | M9-D08 (Fab, V domains shown, HC as printed runs into CH1) VH: EVQLLESGGGLVQPGGSLRLSCAASGFTFSWYKMMWVRQAPGKGLEWVSSIYPSGGWTNYADSVKGRFTISRDNSKNTLYLQMNSLRAEDTAVYYCTRGSPWGDDAFDIWGQGTMVTVSS VL: DIQMTQSPSSLSASVGDRVTLTCRASRTISFYLNWYQQKAGKAPELLIYGGSSLHSGVPSRFSGSGSGTDFSLTISNLQPEDIAVYYCQQSFSSPWTFGQGTKVEIK |
| 43.2 | M11-E04 (Fab, V domains shown, HC as printed runs into CH1) VH: EVQLLESGGGLVQPGGSLRLSCAASGFTFSMYHMNWVRQAPGKGLEWVSGIVSSGGVTFYADSVKGRFTISRDNSKNTLYLQMNSLRAEDTAVYYCARITTVTTGGAFDIWGQGTMVTVSS VL: DIQMTQSPSSLSASVGDRVTITCRASQSISIYLTWYQHRPGKAPNLLIYGAATLQTGVPSRFSGSGSGTDFTLTIRGLQPEDFATYYCQQTFSLPRTFGQGTKLEIK |
| 33.7 | M10-A03 (Fab, V domains shown, HC as printed runs into CH1) VH: EVQLLESGGGLVQPGGSLRLSCAASGFTFSPYPMQWVRQAPGKGLEWVSSISSSGGMTEYADSVKGRFTISRDNSKNTLYLQMNSLRAEDTAVYYCARDDYGGKGGAFDIWGQGTMVTVSS VL: DIQMTQSPSSLSASVGDRVTITCRASQRISFYLNWFQQKPGKAPNLLIYGASSLQSGVPSRFSGSGSGTDFTLTISSLQPKDFGTYYCQQTFSTPNTFGQGTKLEIK |
| 7 | M9-F09 (Fab, V domains shown, HC as printed runs into CH1; (as printed for M28-E01)) VH: EVQLLESGGGLVQPGGSLRLSCAASGFTFSSYPMGWVRQAPGKGLEWVSRISSSGGMTIYADSVKGRFTISRDNSKNTLYLQMNSLRAEDTAVYYCARDDWNVGMDVWGQGTTVTVSS VL: DIQMTQSPSSLSASVGDRVTITCRASQSISSYLNWYQQKPGKAPKLLIYAASSLQSGVPSKFSGSGSGTDYTLTISSLQPEDFATYYCQQTYTTPWTFGQGTKVEIK |
| 10.9 | M9-F08 (Fab, V domains shown, HC as printed runs into CH1; LC amber q (QMTqSPS) written as Q) VH: EVQLLESGGGLVQPGGSLRLSCAASGFTFSPYAMTWVRQAPGKGLEWVSVIYPSGGFTDYADSVKGRFTISRDNSKNTLYLQMNSLRAEDTAMYYCARASGSYLDAFDIWGQGTMVTVSS VL: not shown |
| 3.5 | M9-H02 (Fab, V domains shown, HC as printed runs into CH1) VH: EVQLLESGGGLVQPGGSLRLSCAASGFTFSAYMMIWVRQAPGKGLEWVSVIYPSGGVTMYADSVKGRFTISRDNSKNTLYLQMNSLRAEDTAVYYCARGTVGASDAFDIWGQGTMVTVSS VL: DIQMTQSPSSLSASVGDRVIITCRASRSIATYLNWYQQKPGKAPNLLIFGASTLQSGVPSRFSGSGSGTDFTLTISDLQPEDFATYYCQQSFSDPYTFGQGTNLEMK |
| 12.6 | M11-E06 (Fab, V domains shown, HC as printed runs into CH1) VH: EVQLLESGGGLVQPGGSLRLSCAASGFTFSQYAMHWVRQAPGKGLEWVSSIYPSGGFTLYADSVKGRFTISRDNSKNTLYLQMNSLRAEDTAMYYCARGGWLAGGELLNWGQGTLVTVSS VL: DIQMTQSPSSLSASIGDRVTISCRASRGIGTYLNWYQQHAGKAPKLLIRAASSLETGVPPRFSGSGSGTDFTLTISSLQSDDFATYYCQESFTNVYNFGQGTKLEIK |
| 7.1 | M10-G09 (Fab, V domains shown, HC as printed runs into CH1) VH: EVQLLESGGGLVQPGGSLRLSCAASGFTFSQYGMQWVRQAPGKGLEWVSSIRSSGGATRYADSVKGRFTISRDNSKNTLYLQMNSLRAEDTAVYYCARDGYYDSSGYPDYWGQGTLVTVSS VL: DIQMTQSPSSLSASVGDSVTITCRASQSISGYINWYQQKAGKAPKLLIYAASSLQSGVPSRFSGSGSGTHFTLTISSLQPEDFATYYCQQYVSYPFTFGPGTKVDIK |
| 25 | M11-A10 (Fab, V domains shown, HC as printed runs into CH1; also called Ml1-A10) VH: EVQLLESGGGLVQPGGSLRLSCAASGFTFSNYWMMWVRQAPGKGLEWVSGIGSSGGFTSYADSVKGRFTISRDNSKNTLYLQMNSLRAEDTAVYYCAKGSYSDYGVFESWGQGTLVTVSS VL: DIQMTQSPSSLSASVGDRVAITCRASQSIDTYLNWYQQKPGKAPKLLIYDASNLEIGVPSRFSGSGSGTDFTFIINSLQPEDVATYYCQHYLYAPYSFGQGTKLEIK |
